From article PMC7617869, “Molecular glues that inhibit deubiquitylase activity and inflammatory signaling” (Nature Structural & Molecular Biology, 2025)
“And” between values parts separate entries of the source, which are not always exact repeats. Identical values can stand only once.

Tests used:
Assay type in all cases: biochemical
BRISC BRCC45 F140A = BRISC BRCC45 F140A (Homo sapiens, UniProt P46736+Q15018+Q9NXR7, F140A); assay: BRISC mutant IQF assay: BRCC45 F140A
Protocol: (§1) IQF assays were performed in DUB reaction buffer containing 50 mM HEPES–NaOH pH 7.0, 100 mM NaCl, 0.1 mg ml^−1 BSA, 1 mM DTT and 0.03% v/v Brij-35. […] The final concentration of BRISC WT, all BRISC mutants, HsBRISCΔLoop, MmBRISC and DrBRISCΔNΔC was 1 nM. Other enzymes were tested at the following concentrations: 5 nM ARISC (FL), 10 nM CfBRISCΔNΔC, 250 nM AMSH* (ref. [43]), 500 nM USP2 and 1 μM trypsin (Sigma, 9002-07-7). For Michaelis–Menten experiments, 1 nM BRISC with 0–1 μM IQF K63-linked diubiquitin substrate was used. Michaelis–Menten analyses and Lineweaver–Burk plots were calculated using GraphPad Prism (version 9.0).
(§2) To assess enzymatic activity, BRISC complexes were diluted to concentrations between 1 nM and 50 nM. […] Then, 20-μl enzyme reactions were carried out in 384-well black flat-bottom low-flange plates (Corning, 35373). DUB activity was measured using IQF K63-linked diubiquitin (LifeSensors, DU6303) at 50 nM. Cleaved diubiquitin was monitored by measuring fluorescence intensity (excitation, 544 nm; emission, 575 nm; dichroic mirror, 560 nm). Fluorescence intensity was measured every minute for 30 min at 30 °C. Fluorescence intensity units were plotted against time to generate a linear reaction progress curve, where the initial velocity (V0) corresponds to the gradient of the curve (typically achieved within 15 min). IC50 values were calculated using the GraphPad Prism (version 9.0) built-in dose–response equation for inhibitor concentration versus response (variable slope).

BRISC BRCC36 W130A = BRISC BRCC36 W130A (Homo sapiens, UniProt P46736+Q15018+Q9NXR7, W130A); assay: BRISC mutant IQF assay: BRCC36 W130A
Protocol: as §1, §2

BRISC Abraxas2 T140A = BRISC Abraxas2 T140A (Homo sapiens, UniProt P46736+Q15018+Q9NXR7, T140A); assay: BRISC mutant IQF assay: Abraxas2 T140A; conditions: for Normalised V0: Abraxas2 T140A
Protocol: as §1, §2

BRISC BRCC45 R137A = BRISC BRCC45 R137A (Homo sapiens, UniProt P46736+Q15018+Q9NXR7, R137A); assay: BRISC mutant IQF assay: BRCC45 R137A
Protocol: as §1, §2

Normalised V0 (BRISC BRCC45 F140A; SHMT2 6.25 nM): 0.7321 and 0.6833 and 0.7086 | Normalised V0 (BRISC BRCC45 F140A; SHMT2 12.5 nM): 0.4577 and 0.4521 and 0.5184 | Normalised V0 (BRISC BRCC45 F140A; SHMT2 25 nM): 0.3014 and 0.3302 and 0.288 | Normalised V0 (BRISC BRCC45 F140A; SHMT2 50 nM): 0.2533 and 0.2485 and 0.2535 | Normalised V0 (BRISC BRCC45 F140A; SHMT2 100 nM): 0.2137 and 0.184 and 0.161 | SHMT2 inhibition of BRISC mutant (BRISC BRCC36 W130A): reduced BRISC inhibition by SHMT2 | Normalised V0 (BRISC BRCC36 W130A; SHMT2 0.00347222 nM): 1.237 and 1.127 and 0.9914 | Normalised V0 (BRISC BRCC36 W130A; SHMT2 0.0347222 nM): 1.202 and 1.0039 and 1.016 | Normalised V0 (BRISC BRCC36 W130A; SHMT2 0.347222 nM): 1.306 and 1.037 and 1.029 | Normalised V0 (BRISC BRCC36 W130A; SHMT2 1.04167 nM): 1.133 and 0.9683 and 1.009 | Normalised V0 (BRISC BRCC36 W130A; SHMT2 3.125 nM): 1.059 and 0.8824 and 0.9607 | Normalised V0 (BRISC BRCC36 W130A; SHMT2 6.25 nM): 1.076 and 0.9844 and 0.926 | Normalised V0 (BRISC BRCC36 W130A; SHMT2 12.5 nM): 0.9633 and 0.8672 and 0.8727 | Normalised V0 (BRISC BRCC36 W130A; SHMT2 25 nM): 0.8129 and 0.833 and 0.8407 | Normalised V0 (BRISC BRCC36 W130A; SHMT2 50 nM): 0.7117 and 0.7254 and 0.8132 | Normalised V0 (BRISC BRCC36 W130A; SHMT2 100 nM): 0.5212 and 0.5553 and 0.3708 | Normalised V0 (BRISC BRCC36 W130A; SHMT2 200 nM): 0.4561 and 0.482 and 0.3879 | SHMT2 inhibition of BRISC mutant (BRISC Abraxas2 T140A; Abraxas 2 T140A): reduced BRISC inhibition by SHMT2 | Normalised V0 (BRISC Abraxas2 T140A; SHMT2 0.00347222 nM): 0.9459 and 1.003 and 1.126 | Normalised V0 (BRISC Abraxas2 T140A; SHMT2 0.0347222 nM): 0.9478 and 0.9048 and 1.065 | Normalised V0 (BRISC Abraxas2 T140A; SHMT2 0.347222 nM): 1.002 and 0.9158 and 1.209 | Normalised V0 (BRISC Abraxas2 T140A; SHMT2 1.04167 nM): 0.9422 and 0.8854 and 1.017 | Normalised V0 (BRISC Abraxas2 T140A; SHMT2 3.125 nM): 0.7382 and 0.7698 and 1.0401 | Normalised V0 (BRISC Abraxas2 T140A; SHMT2 6.25 nM): 0.8737 and 0.7897 and 1.032 | Normalised V0 (BRISC Abraxas2 T140A; SHMT2 12.5 nM): 0.7421 and 0.6608 and 0.8191 | Normalised V0 (BRISC Abraxas2 T140A; SHMT2 25 nM): 0.6241 and 0.5064 and 0.8208 | Normalised V0 (BRISC Abraxas2 T140A; SHMT2 100 nM): 0.3175 and 0.5076 | Normalised V0 (BRISC Abraxas2 T140A; SHMT2 200 nM): 0.2755 and 0.2287 and 0.3324 | Normalised V0 (BRISC BRCC45 R137A; SHMT2 0.00347222 nM): 1.014 and 1.027 and 1.065 | Normalised V0 (BRISC BRCC45 R137A; SHMT2 0.0347222 nM): 1.097 and 0.9804 and 1.087 | Normalised V0 (BRISC BRCC45 R137A; SHMT2 0.347222 nM): 0.9721 and 1.019 and 0.9944 | Normalised V0 (BRISC BRCC45 R137A; SHMT2 1.04167 nM): 0.7112 and 0.6836 and 0.8504 | Normalised V0 (BRISC BRCC45 R137A; SHMT2 3.125 nM): 0.4073 and 0.4138 and 0.6039 | Normalised V0 (BRISC BRCC45 R137A; SHMT2 6.25 nM): 0.3218 and 0.2523 and 0.3959 | Normalised V0 (BRISC BRCC45 R137A; SHMT2 12.5 nM): 0.1807 and 0.195 and 0.2065 | Normalised V0 (BRISC BRCC45 R137A; SHMT2 25 nM): 0.1093 and 0.1844 and 0.1637 | Normalised V0 (BRISC BRCC45 R137A; SHMT2 50 nM): 0.06765 and 0.12 and 0.1128 | Normalised V0 (BRISC BRCC45 R137A; SHMT2 100 nM): 0.03288 and 0.04915 and 0.05253 | SHMT2 inhibition of BRISC BRCC45 mutants (BRISC BRCC45 R137A; b47 speaks of all BRCC45 mutants): without affecting SHMT2 inhibition
B1: SHMT2: serine hydroxymethyltransferase 2, metabolic enzyme and endogenous inhibitor of BRISC DUB activity (protein)
chain: QLVRMAIRAQHSNAAQTQTGEANRGWTGQESLSDSDPEMWELLQREKDRQCRGLELIASENFCSRAALEALGSCLNNKYSEGYPGKRYYGGAEVVDEIELLCQRRALEAFDLDPAQWGVNVQPYSGSPANLAVYTALLQPHDRIMGLDLPDGGHLTHGYMSDVKRISATSIFFESMPYKLNPKTGLIDYNQLALTARLFRPRLIIAGTSAYARLIDYARMREVCDEVKAHLLADMAHISGLVAAKVIPSPFKHADIVTTTTHKTLRGTRSGLIFYRKGVKAVDPKTGREIPYTFEDRINFAVFPSLQGGPHNHAIAAVAVALKQACTPMFREYSLQVLKNARAMADALLERGYSLVSGGTDNHLVLVDLRPKGLDGARAERVLELVSITANKNTCPGDRSAITPGGLRLGAPALTSRQFREDDFRRVVDFIDEGVNIGLEVKSKTAKLQDFKSFLLKDSETSQRLANLRQRVEQFARAFPMPGFDEH
